A short description of data set [1]: cell-surface flow cytometry, MDA-MB-231.
Data set [2] in a line: cell-surface flow cytometry, MCF-7.
[3] abbreviates: glycan lost, control: WT-PD-L1 MDA cells.
Where [4] appears, read: glycan lost, control: WT-PD-L1 MCF-7 cells.

Regarding PD-L1: N192A-PD-L1, the expression_or_secretion result in data set [1] (setting [3]) and in data set [2] (setting [4]) was “no change” in each case.

PD-L1: kifunensine: the expression_or_secretion result in data set [1] (glycan changed form, control: vehicle-treated WT-PD-L1 MDA cells) is listed as “no change”; in data set [2] (glycan changed form, control: vehicle-treated WT-PD-L1 MCF-7 cells) it was “no change”.

As to PD-L1: N35A-PD-L1, the expression_or_secretion result in data set [1] (setting [3]) and in data set [2] (setting [4]) was “no change” in each case.

For PD-L1: N200A-PD-L1, the expression_or_secretion result in data set [1] (setting [3]) and in data set [2] (setting [4]) was “no change” in each case.

On to PD-L1: N219A-PD-L1, for which the expression_or_secretion result in data set [1] (setting [3]) and in data set [2] (setting [4]) was “no change” each time.

Values taken from publication PMC10571791.
